# According to patent publication US10239925B2, “Peptides and combination of peptides for use in immunotherapy against ovarian cancer and other cancers” (IMMATICS BIOTECHNOLOGIES GMBH, priority 2015, dated 2019):
# Molecular target: HLA-A*02:01 (Homo sapiens, UniProt P04439, D140Y/D185E/D98H/E176V/E277Q/G131W/G231S/I119V/I121R/I166T/I218V/L300P/L318F/N151K/N90K/P208A/P217A/Q86G/Q94H/R138H/R169H/T345S)
# Assay: MHC binding assay (UV-ligand exchange, anti-β2m ELISA, peptide exchange yield)
# Conditions: binding to HLA-A*02:01
# Excerpt: Candidate peptides for T cell based therapies according to the present invention were further tested for their MHC binding capacity (affinity). The individual peptide-MHC complexes were produced by UV-ligand exchange, where a UV-sensitive peptide is cleaved upon UV-irradiation, and exchanged with the peptide of interest as analyzed. Only peptide candidates that can effectively bind and stabilize the peptide-receptive MHC molecules prevent dissociation of the MHC complexes. To determine the yield of the exchange reaction, an ELISA was performed based on the detection of the light chain (β2m) of stabilized MHC complexes. The assay was performed as generally described in Rodenko et al. (Rodenko et al., 2006).
# 96 well MAXISorp plates (NUNC) were coated over night with 2 ug/ml streptavidin in PBS at room temperature, washed 4× and blocked for 1h at 37° C. in 2% BSA containing blocking buffer. […] Peptide-MHC monomers of the UV-exchange reaction were diluted 100 fold in blocking buffer. Samples were incubated for 1 h at 37° C., washed four times, incubated with 2 ug/ml HRP conjugated anti-β2m for 1h at 37° C., washed again and detected with TMB solution that is stopped with […]. Absorption was measured at 450 nm. Candidate peptides that show a high exchange yield (preferably higher than 50%, most preferred higher than 75%) are generally preferred for a generation and production of antibodies or fragments thereof, and/or T cell receptors or fragments thereof, as they show sufficient avidity to the MHC molecules and prevent dissociation of the MHC complexes.
row,Substance,"Peptide exchange (MHC class I binding score, peptide exchange yield)"
1,155 (RVANLHFPSV; listed as Homo sapiens) [compound 155],“+++” (>50 = +++)
2,158 (KLFDVDEDGYI; listed as Homo sapiens) [compound 158],“+++” (>50 = +++)
3,159 (GLVGNPLPSV; listed as Homo sapiens) [compound 159],“++++” (>75% = ++++)
4,160 (FLFDEEIEQI; listed as Homo sapiens) [compound 160],“+++” (>50 = +++)
5,161 (ALLEGVNTV; listed as Homo sapiens) [compound 161],“+++” (>50 = +++)
6,162 (YQQAQVPSV; listed as Homo sapiens) [compound 162],“+++” (>50 = +++)
7,163 (ALDEMGDLLQL; listed as Homo sapiens) [compound 163],“+++” (>50 = +++)
8,164 (ALLPQPKNLTV; listed as Homo sapiens) [compound 164],“+++” (>50 = +++)
9,165 (SLLDEIRAV; listed as Homo sapiens) [compound 165],“+++” (>50 = +++)
10,167 (KVLEVTEEFGV; listed as Homo sapiens) [compound 167],“+++” (>50 = +++)
11,168 (KILDADIQL; listed as Homo sapiens) [compound 168],“++++” (>75% = ++++)
12,169 (NLPEYLPFV; listed as Homo sapiens) [compound 169],“+++” (>50 = +++)
13,170 (RLQETLSAA; listed as Homo sapiens) [compound 170],“+++” (>50 = +++)
14,171 (LLLPLQILL; listed as Homo sapiens) [compound 171],“+++” (>50 = +++)
15,172 (VLYSYTIITV; listed as Homo sapiens) [compound 172],“++” (>20% = ++)
16,173 (LLDSASAGLYL; listed as Homo sapiens) [compound 173],“+++” (>50 = +++)
17,174 (ALAQYLITA; listed as Homo sapiens) [compound 174],“+++” (>50 = +++)
18,175 (YLFENISQL; listed as Homo sapiens) [compound 175],“+++” (>50 = +++)
19,176 (YLMEGSYNKVFL; listed as Homo sapiens) [compound 176],“++” (>20% = ++)
20,177 (YLLPEEYTSTL; listed as Homo sapiens) [compound 177],“++++” (>75% = ++++)
21,178 (ALTEIAFVV; listed as Homo sapiens) [compound 178],“++++” (>75% = ++++)

row,Substance,"Peptide exchange (MHC class I binding score, peptide exchange yield)"
1,179 (KVLNELYTV; listed as Homo sapiens) [compound 179],“+++” (>50 = +++)
2,180 (FQIDPHSGLVTV; listed as Homo sapiens) [compound 180],“++” (>20% = ++)
3,181 (LLWAGTAFQV; listed as Homo sapiens) [compound 181],“+++” (>50 = +++)
4,182 (MLLEAPGIFL; listed as Homo sapiens) [compound 182],“+++” (>50 = +++)
5,183 (FGLDLVTEL; listed as Homo sapiens) [compound 183],“+++” (>50 = +++)
6,184 (YLMDINGKMWL; listed as Homo sapiens) [compound 184],“+++” (>50 = +++)
7,185 (FLIDDKGYTL; listed as Homo sapiens) [compound 185],“++” (>20% = ++)
8,186 (TLFFQQNAL; listed as Homo sapiens) [compound 186],“++” (>20% = ++)
9,187 (RQISIRGIVGV; listed as Homo sapiens) [compound 187],“+++” (>50 = +++)
10,188 (GLFPVTPEAV; listed as Homo sapiens) [compound 188],“+++” (>50 = +++)
11,189 (ALQRKLPYV; listed as Homo sapiens) [compound 189],“+++” (>50 = +++)
12,190 (FLSSLTETI; listed as Homo sapiens) [compound 190],“+++” (>50 = +++)
13,192 (KMLDGASFTL; listed as Homo sapiens) [compound 192],“+++” (>50 = +++)
14,193 (QLLDADGFLNV; listed as Homo sapiens) [compound 193],“+++” (>50 = +++)
15,194 (ALPLFVITV; listed as Homo sapiens) [compound 194],“+++” (>50 = +++)
16,195 (GLFADLLPRL; listed as Homo sapiens) [compound 195],“+++” (>50 = +++)
17,196 (YLYSVEIKL; listed as Homo sapiens) [compound 196],“++++” (>75% = ++++)
18,197 (ALGPEGGRV; listed as Homo sapiens) [compound 197],“++” (>20% = ++)
19,200 (LLFGSVQEV; listed as Homo sapiens) [compound 200],“+++” (>50 = +++)
20,201 (RLVDYLEGI; listed as Homo sapiens) [compound 201],“+++” (>50 = +++)
21,202 (ALLDQQGSRWTL; listed as Homo sapiens) [compound 202],“+++” (>50 = +++)

row,Substance,"Peptide exchange (MHC class I binding score, peptide exchange yield)"
1,204 (KIAENVEEV; listed as Homo sapiens) [compound 204],“++” (>20% = ++)
2,205 (SLYPGTETMGL; listed as Homo sapiens) [compound 205],“+++” (>50 = +++)
3,206 (VLQEGKLQKLAQL; listed as Homo sapiens) [compound 206],“+++” (>50 = +++)
4,207 (GLTSTNAEV; listed as Homo sapiens) [compound 207],“++” (>20% = ++)
5,208 (KISPVTFSV; listed as Homo sapiens) [compound 208],“+++” (>50 = +++)
6,209 (KLIESKHEV; listed as Homo sapiens) [compound 209],“++” (>20% = ++)
7,210 (LLLNAVLTV; listed as Homo sapiens) [compound 210],“++” (>20% = ++)
8,211 (LLWPGAALL; listed as Homo sapiens) [compound 211],“++” (>20% = ++)
9,212 (ALWDQDNLSV; listed as Homo sapiens) [compound 212],“++” (>20% = ++)
10,214 (FLLDLDPLLL; listed as Homo sapiens) [compound 214],“+++” (>50 = +++)
11,216 (NLWEDPYYL; listed as Homo sapiens) [compound 216],“+++” (>50 = +++)
12,217 (ALIHPVSTV; listed as Homo sapiens) [compound 217],“++” (>20% = ++)
13,218 (SALEELVNV; listed as Homo sapiens) [compound 218],“++” (>20% = ++)
14,219 (KLSDIGITV; listed as Homo sapiens) [compound 219],“+++” (>50 = +++)
15,220 (LLQKFVPEI; listed as Homo sapiens) [compound 220],“++” (>20% = ++)
16,221 (ALYEEGLLL; listed as Homo sapiens) [compound 221],“++” (>20% = ++)
17,222 (NLIENVQRL; listed as Homo sapiens) [compound 222],“++” (>20% = ++)
18,223 (ALLENIALYL; listed as Homo sapiens) [compound 223],“+++” (>50 = +++)
19,224 (TLIDAQWVL; listed as Homo sapiens) [compound 224],“+++” (>50 = +++)
